# In the supplement of paper PMC9112550, “Optimization of the antimicrobial peptide Bac7 by deep mutational scanning” (BMC Biology, 2022):
# Test system: Escherichia coli TOP10
# Assay: shrunken log2 fold change of peptide-encoding DNA abundance (4.5 h post-induction vs induction); higher = less antimicrobial activity (less host growth inhibition)
# Conditions: time post-induction: 4.5 h; library: site-saturation at positions 5, 18, 19, 20
# 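Further: peptides expressed intracellularly from a pBAD plasmid library in pooled LB shake-flask culture, induced with 0.3% L-arabinose, DNA abundance read by NGS, three biological replicates, DESeq2 with apeglm shrinkage.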
row,Sequence,shrunken log2 fold change
1,RRIRMRPPRLPRPRPRPTRQPRP,0.886
2,RRIRIRPPRLPRPRPRPIIKPRP,-0.666
3,RRIRSRPPRLPRPRPRPNYAPRP,-0.327
4,RRIRYRPPRLPRPRPRPEAMPRP,-0.0891
5,RRIRVRPPRLPRPRPRPFDQPRP,-0.365
6,RRIRMRPPRLPRPRPRPWEAPRP,-0.033
7,RRIRPRPPRLPRPRPRPKDNPRP,-0.248
8,RRIRSRPPRLPRPRPRPQRNPRP,0.104
9,RRIRERPPRLPRPRPRPVSIPRP,-1.57
10,RRIRIRPPRLPRPRPRPKGRPRP,0.182
11,RRIRWRPPRLPRPRPRPECPPRP,0.341
12,RRIRFRPPRLPRPRPRPCKPPRP,-0.109
13,RRIRDRPPRLPRPRPRPRWTPRP,0.289
14,RRIRLRPPRLPRPRPRPYPMPRP,0.00832
15,RRIRTRPPRLPRPRPRPKEIPRP,-1.03
16,RRIRERPPRLPRPRPRPPFSPRP,-0.241
17,RRIRNRPPRLPRPRPRPAKMPRP,-0.0794
18,RRIRQRPPRLPRPRPRPTPQPRP,0.89
19,RRIRERPPRLPRPRPRPACEPRP,-0.112
20,RRIRWRPPRLPRPRPRPEFLPRP,0.374
21,RRIRCRPPRLPRPRPRPHCMPRP,-0.517
22,RRIRSRPPRLPRPRPRPISPPRP,-0.402
23,RRIRHRPPRLPRPRPRPATMPRP,-0.123
24,RRIRFRPPRLPRPRPRPYSAPRP,-1.11
25,RRIRQRPPRLPRPRPRPFAVPRP,-0.99

row,Sequence,shrunken log2 fold change
1,RRIRDRPPRLPRPRPRPYYSPRP,0.0804
2,RRIRFRPPRLPRPRPRPANYPRP,-0.43
3,RRIRRRPPRLPRPRPRPCYQPRP,-0.16
4,RRIRARPPRLPRPRPRPLWGPRP,0.308
5,RRIRPRPPRLPRPRPRPPVCPRP,0.409
6,RRIRIRPPRLPRPRPRPDVTPRP,-0.0322
7,RRIRARPPRLPRPRPRPADGPRP,0.258
8,RRIRQRPPRLPRPRPRPKVIPRP,-0.0316
9,RRIRQRPPRLPRPRPRPGPSPRP,0.242
10,RRIRWRPPRLPRPRPRPLWCPRP,0.149
11,RRIRQRPPRLPRPRPRPNRPPRP,-0.056
12,RRIRKRPPRLPRPRPRPWRYPRP,-0.00865
13,RRIRHRPPRLPRPRPRPHALPRP,0.0244
14,RRIRSRPPRLPRPRPRPRYSPRP,-0.232
15,RRIRDRPPRLPRPRPRPLLWPRP,0.754
16,RRIRFRPPRLPRPRPRPAVIPRP,-0.0689
17,RRIRMRPPRLPRPRPRPTLTPRP,1.4
18,RRIRGRPPRLPRPRPRPTAWPRP,1.84
19,RRIRPRPPRLPRPRPRPVNRPRP,-0.0842
20,RRIRSRPPRLPRPRPRPRKPPRP,0.0197
21,RRIRDRPPRLPRPRPRPDHQPRP,-0.0643
22,RRIRNRPPRLPRPRPRPDCIPRP,-0.194
23,RRIRFRPPRLPRPRPRPAVMPRP,0.248
24,RRIRERPPRLPRPRPRPYRTPRP,-1.15
25,RRIRCRPPRLPRPRPRPKCQPRP,0.201

row,Sequence,shrunken log2 fold change
1,RRIRMRPPRLPRPRPRPVMEPRP,-0.00102
2,RRIRKRPPRLPRPRPRPTMFPRP,0.165
3,RRIRIRPPRLPRPRPRPINEPRP,-0.516
4,RRIRHRPPRLPRPRPRPIYPPRP,-0.158
5,RRIRYRPPRLPRPRPRPVSMPRP,-0.00201
6,RRIRRRPPRLPRPRPRPPSLPRP,0.522
7,RRIRRRPPRLPRPRPRPAGEPRP,0.75
8,RRIRGRPPRLPRPRPRPLMAPRP,1.39
9,RRIRIRPPRLPRPRPRPIAPPRP,-0.0686
10,RRIRRRPPRLPRPRPRPAYPPRP,0.0273
11,RRIRMRPPRLPRPRPRPEGWPRP,3.15
12,RRIRPRPPRLPRPRPRPMGGPRP,0.113
13,RRIRTRPPRLPRPRPRPYMVPRP,-1.93
14,RRIRQRPPRLPRPRPRPLDIPRP,-0.163
15,RRIRNRPPRLPRPRPRPRVWPRP,3.4
16,RRIRARPPRLPRPRPRPFAIPRP,-0.239
17,RRIRRRPPRLPRPRPRPNPHPRP,0.534
18,RRIRFRPPRLPRPRPRPKFFPRP,-0.00377
19,RRIRGRPPRLPRPRPRPADRPRP,1.07
20,RRIRKRPPRLPRPRPRPRAHPRP,0.68
21,RRIRQRPPRLPRPRPRPSKGPRP,0.0585
22,RRIRARPPRLPRPRPRPWNNPRP,-1.02
23,RRIRKRPPRLPRPRPRPIPIPRP,0.136
24,RRIRCRPPRLPRPRPRPNECPRP,-0.37
25,RRIRVRPPRLPRPRPRPQLPPRP,-0.0715

row,Sequence,shrunken log2 fold change
1,RRIRCRPPRLPRPRPRPTFYPRP,-0.237
2,RRIRVRPPRLPRPRPRPIQNPRP,-0.121
3,RRIRRRPPRLPRPRPRPTVDPRP,0.615
4,RRIRTRPPRLPRPRPRPVKNPRP,-0.284
5,RRIRRRPPRLPRPRPRPHRRPRP,-0.000685
6,RRIRLRPPRLPRPRPRPYGDPRP,-0.0122
7,RRIRHRPPRLPRPRPRPFGPPRP,-0.247
8,RRIRPRPPRLPRPRPRPYAAPRP,0.0621
9,RRIRFRPPRLPRPRPRPVHWPRP,-0.105
10,RRIRRRPPRLPRPRPRPVRHPRP,0.247
11,RRIRQRPPRLPRPRPRPNPIPRP,0.0989
12,RRIRQRPPRLPRPRPRPSVSPRP,-0.000735
13,RRIRCRPPRLPRPRPRPQSDPRP,-0.69
14,RRIRRRPPRLPRPRPRPKLQPRP,0.179
15,RRIRIRPPRLPRPRPRPVARPRP,0.223
16,RRIRKRPPRLPRPRPRPVNDPRP,0.00208
17,RRIRLRPPRLPRPRPRPCKSPRP,-0.264
18,RRIRDRPPRLPRPRPRPPRCPRP,0.551
19,RRIRDRPPRLPRPRPRPNISPRP,-0.266
20,RRIRPRPPRLPRPRPRPVCMPRP,0.132
21,RRIRYRPPRLPRPRPRPPGWPRP,0.167
22,RRIRNRPPRLPRPRPRPGVGPRP,0.402
23,RRIRTRPPRLPRPRPRPCKMPRP,-0.47
24,RRIRLRPPRLPRPRPRPTVAPRP,0.0307
25,RRIRCRPPRLPRPRPRPLFAPRP,0.0307

row,Sequence,shrunken log2 fold change
1,RRIRRRPPRLPRPRPRPHIHPRP,-0.674
2,RRIRRRPPRLPRPRPRPIQAPRP,-0.0046
3,RRIRHRPPRLPRPRPRPHDHPRP,-1.24
4,RRIRWRPPRLPRPRPRPAICPRP,-0.0928
5,RRIRRRPPRLPRPRPRPQTHPRP,0.361
6,RRIRWRPPRLPRPRPRPRVVPRP,0.655
7,RRIRARPPRLPRPRPRPFCNPRP,-0.0929
8,RRIRYRPPRLPRPRPRPWYMPRP,-0.838
9,RRIRARPPRLPRPRPRPSDSPRP,-0.197
10,RRIRGRPPRLPRPRPRPWTGPRP,-0.0411
11,RRIRHRPPRLPRPRPRPNWCPRP,-0.00989
12,RRIRLRPPRLPRPRPRPVSAPRP,0.0663
13,RRIRIRPPRLPRPRPRPHQGPRP,-0.117
14,RRIRCRPPRLPRPRPRPFDIPRP,-1.4
15,RRIRNRPPRLPRPRPRPHTYPRP,-0.501
16,RRIRVRPPRLPRPRPRPSGIPRP,-0.931
17,RRIRMRPPRLPRPRPRPCFVPRP,-0.103
18,RRIRSRPPRLPRPRPRPQGYPRP,-0.139
19,RRIRHRPPRLPRPRPRPFVLPRP,-0.0634
20,RRIRSRPPRLPRPRPRPYLQPRP,-0.176
21,RRIRLRPPRLPRPRPRPEMTPRP,0.276
22,RRIRHRPPRLPRPRPRPWCPPRP,-0.402
23,RRIRCRPPRLPRPRPRPHLSPRP,-0.147
24,RRIRDRPPRLPRPRPRPSWRPRP,0.0848
25,RRIRSRPPRLPRPRPRPNQYPRP,0.2

row,Sequence,shrunken log2 fold change
1,RRIRIRPPRLPRPRPRPDNFPRP,-0.0215
2,RRIRSRPPRLPRPRPRPIFSPRP,-0.617
3,RRIRSRPPRLPRPRPRPPTVPRP,0.153
4,RRIRFRPPRLPRPRPRPMTLPRP,-0.107
5,RRIRWRPPRLPRPRPRPMPDPRP,0.173
6,RRIRMRPPRLPRPRPRPKMVPRP,2.27
7,RRIRHRPPRLPRPRPRPPPMPRP,0.557
8,RRIRKRPPRLPRPRPRPERSPRP,0.245
9,RRIRWRPPRLPRPRPRPYMQPRP,-0.422
10,RRIRERPPRLPRPRPRPTRHPRP,0.157
11,RRIRDRPPRLPRPRPRPSTFPRP,0.11
12,RRIRDRPPRLPRPRPRPGWNPRP,0.69
13,RRIRNRPPRLPRPRPRPLKLPRP,-0.207
14,RRIRARPPRLPRPRPRPCFTPRP,-0.172
15,RRIRMRPPRLPRPRPRPDDHPRP,0.00288
16,RRIRPRPPRLPRPRPRPRRRPRP,0.41
17,RRIRARPPRLPRPRPRPLYYPRP,-0.316
18,RRIRNRPPRLPRPRPRPVHNPRP,-0.289
19,RRIRCRPPRLPRPRPRPKMQPRP,0.103
20,RRIRWRPPRLPRPRPRPLKHPRP,-0.623
21,RRIRIRPPRLPRPRPRPTVEPRP,-0.0817
22,RRIRHRPPRLPRPRPRPSYAPRP,-0.21
23,RRIRLRPPRLPRPRPRPPYIPRP,-0.081
24,RRIRGRPPRLPRPRPRPWYQPRP,0.0417
25,RRIRHRPPRLPRPRPRPRGFPRP,0.0657
